Laboratory results as given in patent publication US11472840B2, “Acetylcholine receptor-binding peptide” (AMICOGEN, INC., priority 2017, dated 2022).

Columns and labels:
acetylcholine receptor = acetylcholine receptor (Homo sapiens, UniProt P02708); assay: Surface plasmon resonance (SPR) affinity measurement on a biosensor chip (Biacore 3000); settings: running buffer 20 mM Tris pH 7.4, peptide 0.1 to 0.5 μM, higher binding than Synake (FIG. 10)
Protocol: A surface plasmon resonance (SPR) experiment was progressed using a biosensor chip to check affinity values for acetylcholine receptors of S6_1 (SEQ ID NO: 23, WTWKGKGTLNR), i.e., discovered peptides and Synake, i.e., a positive control group (Biacore 3000, Biacore AB, Uppsala, Sweden). […] A binding ability comparing experiment was carried out under observation conditions of a running buffer of 20 mM Tris (pH 7.4), a speed of 30 ? /min, a concentration of 10 to 50 μM (Synake), and a concentration of 0.1 to 10 μM (peptides S6_1). Respective results of the binding ability comparing experiment are shown in FIG. 7 (Synake) and FIG. 8 (peptides S6_1).
A surface plasmon resonance (SPR) experiment was progressed using a biosensor chip to check affinity values for acetylcholine receptors of optimized S6_1_C9 peptides (SEQ ID NO: 28, WKGKGTLNR) prepared in Example 6 (Biacore 3000, Biacore AB, Uppsala, Sweden).
An experiment of measuring affinity values of the peptides was carried out under observation conditions of a running buffer of 20 mM Tris (pH 7.4), a speed of 30 ? /min, and a concentration of 0.1 to 0.5 μM (peptides S6_1_C9).

[1] = molecular target: acetylcholine receptor (AchR) alpha 1; assay: SPR (Biacore 3000), AchR coupled to chip, peptide 0.1 to 0.5 uM; reference Synake
Sequence of acetylcholine receptor (AchR) alpha 1 (P02708 whole entry): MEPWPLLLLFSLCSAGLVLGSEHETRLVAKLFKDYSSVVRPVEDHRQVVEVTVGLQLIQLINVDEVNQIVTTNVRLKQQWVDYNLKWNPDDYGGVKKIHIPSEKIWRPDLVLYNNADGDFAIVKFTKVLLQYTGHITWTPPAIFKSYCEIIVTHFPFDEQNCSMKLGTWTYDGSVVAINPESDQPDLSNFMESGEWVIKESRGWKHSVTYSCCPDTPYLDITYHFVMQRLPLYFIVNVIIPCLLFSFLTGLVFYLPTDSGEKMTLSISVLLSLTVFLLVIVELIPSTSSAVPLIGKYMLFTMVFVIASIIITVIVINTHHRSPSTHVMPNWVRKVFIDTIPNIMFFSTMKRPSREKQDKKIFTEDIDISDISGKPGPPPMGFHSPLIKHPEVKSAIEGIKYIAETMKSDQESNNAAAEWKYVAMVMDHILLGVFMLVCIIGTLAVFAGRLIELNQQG

Sequence of acetylcholine receptor (P02708 21-457): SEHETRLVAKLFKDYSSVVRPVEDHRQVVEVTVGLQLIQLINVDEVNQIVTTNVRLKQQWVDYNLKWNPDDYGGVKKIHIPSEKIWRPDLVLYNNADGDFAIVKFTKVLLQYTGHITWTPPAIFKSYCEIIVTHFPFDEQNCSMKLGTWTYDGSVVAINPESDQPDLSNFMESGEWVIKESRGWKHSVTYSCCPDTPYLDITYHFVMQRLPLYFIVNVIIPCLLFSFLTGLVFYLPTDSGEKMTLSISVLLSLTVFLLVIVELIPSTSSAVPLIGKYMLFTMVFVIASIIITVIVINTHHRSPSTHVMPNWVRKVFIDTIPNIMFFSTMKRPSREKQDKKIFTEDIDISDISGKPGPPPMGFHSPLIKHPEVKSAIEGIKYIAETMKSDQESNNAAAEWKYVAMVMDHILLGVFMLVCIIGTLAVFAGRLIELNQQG

Question: Which “binding ability for acetylcholine receptor relative to Synake” value (acetylcholine receptor) does the source give for WKGKGTLNR (Ach-R) [S6_1_C9] here?
Answer: about 100 times

Question: For WKGKGTLNR [S6_1_C9], which binding abilities, fold higher than Synake [1] is on record?
Answer: 100 times
